B1: HsMTHFR_(1-656) treated with calf intestine alkaline phosphatase (dephosphorylated) (enzyme)
chain: not shown
B2: HsMTHFR_(38-644) (domain or fragment)
chain: not shown

What was measured:
[1] = molecular target: the molecule itself; assay: native MS
[2] = molecular target: the molecule itself; assay: crystal structure

| Protein | stoichiometry N [1] | stoichiometry N [2] |
| --- | --- | --- |
| B1 | 2 |  |
| B2 |  | 2 |

Reference: article doi:10.1101/271593 (bioRxiv, 2018)
